Changes are numbered by the printed parent chain. Numbers in names are those of the source.
T1: human FcγRIIb extracellular domain (human, UniProt P31994 43-217)
T1 construct: also called FcγIIB; not shown: His tag at the C terminus
T1 sequence: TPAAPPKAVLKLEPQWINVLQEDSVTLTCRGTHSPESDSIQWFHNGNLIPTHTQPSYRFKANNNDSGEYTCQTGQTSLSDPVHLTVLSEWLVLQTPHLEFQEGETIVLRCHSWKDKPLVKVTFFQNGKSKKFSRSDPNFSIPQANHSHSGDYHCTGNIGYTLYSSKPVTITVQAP

T2: human FcγRIIa type R extracellular domain with C-terminal His tag (human, UniProt P12318 34-217)
T2 construct: extracellular domain; also called FcγRIIaR; FcγRIIa(R)
T2 sequence (looked up): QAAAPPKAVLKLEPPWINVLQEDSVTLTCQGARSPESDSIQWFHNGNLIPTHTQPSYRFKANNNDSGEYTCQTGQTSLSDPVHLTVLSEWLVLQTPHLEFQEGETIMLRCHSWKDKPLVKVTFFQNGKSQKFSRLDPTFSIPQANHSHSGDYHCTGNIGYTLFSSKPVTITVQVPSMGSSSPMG

T3: human FcγRIIb extracellular domain with C-terminal His tag (human, UniProt P31994 43-217)
T3 construct: extracellular domain
T3 sequence (looked up): T1 sequence

T4: human FcγRIIa type R (R131) extracellular domain with C-terminal His tag (human, UniProt P12318 34-217)
T4 construct: extracellular domain; also called FcγRIIaR; not shown: His tag at the C terminus
T4 sequence (looked up): T2 sequence (looked up)

T5: human FcγRIIb extracellular domain with C-terminal His tag (human, UniProt P31994 43-217)
T5 construct: extracellular domain; not shown: His tag at the C terminus
T5 sequence (looked up): T1 sequence

T6: human FcγRIIa type R extracellular domain (human, UniProt P12318 34-217)
T6 construct: also called FcγRIIaR; FcγRIIa(R); not shown: His tag at the C terminus
T6 chain: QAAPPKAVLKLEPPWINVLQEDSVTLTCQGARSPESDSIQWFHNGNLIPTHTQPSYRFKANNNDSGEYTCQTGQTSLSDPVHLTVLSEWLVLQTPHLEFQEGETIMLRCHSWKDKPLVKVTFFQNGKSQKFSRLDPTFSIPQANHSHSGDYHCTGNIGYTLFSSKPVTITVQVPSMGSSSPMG

B1: IL6R-BP564/IL6R-L (antibody, human IgG1, kappa)
heavy: QVQLQESGPGLVKPSETLSLTCAVSGHSISHDHAWSWVRQPPGEGLEWIGFISYSGITNYNPSLQGRVTISRDNSKNTLYLQMNSLRAEDTAVYYCARSLARTTAMDYWGEGTLVTVSSASTKGPSVFPLAPSSKSTSGGTAALGCLVKDYFPEPVTVSWNSGALTSGVHTFPAVLQSSGLYSLSSVVTVPSSSLGTQTYICNVNHKPSNTKVDKKVEPKSCDKTHTCPPCPAPELLGDDSVFLFPPKPKDTLMISRTPEVTCVVVDVSEEDGDVKFNWYVDGVEVHNAKTKPREEQDNSTYRVVSVLTVLHQDWLNGKEYKCKVSNKALPRPIEKTISKAKGQPREPQVYTLPPSRDELTKNQVSLTCLVKGFYPSDIAVEWESNGQPENNYKTTPPVLDSDGSFFLYSKLTVDKSRWQQGNVFSCSVMHEALHNHYTQESLSLSP
light: not shown
notes: copies: 2 + 2
B2: IL6R-BP562/IL6R-L (antibody, human IgG1, kappa)
heavy: B1 heavy with E270D
light: not shown
notes: copies: 2 + 2
B3: IL6R-BP560/IL6R-L (antibody, human IgG1, kappa)
heavy: B1 heavy with D239G, S269G, D274E
light: not shown
notes: anti-human IL-6 receptor IgG1 variant; copies: 2 + 2
B4: IL6R-BP492/IL6R-L (antibody, human IgG1, kappa)
heavy: B1 heavy with D239G, V266I, S269A, D274E, D298Y, R332A
light: not shown
notes: copies: 2 + 2
B5: IL6R-BP500/IL6R-L (antibody, human IgG1, kappa)
heavy: B1 heavy with V266I, S269A, D274E, R332A
light: not shown
notes: copies: 2 + 2
B6: IL6R-BP559/IL6R-L (antibody, human IgG1, kappa)
heavy: B1 heavy with D239G, V266I, S269A, R332A
light: not shown
notes: copies: 2 + 2
B7: IL6R-BP557/IL6R-L (antibody, human IgG1, kappa)
heavy: B1 heavy with S269G, E270D, D274E
light: not shown
notes: copies: 2 + 2
B8: IL6R-BP493/IL6R-L (antibody, human IgG1, kappa)
heavy: B1 heavy with D239G, V266I, S269A, D274E, R332A
light: not shown
notes: copies: 2 + 2
B9: IL6R-BP541/IL6R-L (antibody, human IgG1, kappa)
heavy: B1 heavy with E235D, E270D, D274E, K276Q
light: not shown
notes: K274Q introduced into IL6R-BP230; copies: 2 + 2
B10: IL6R-BP544/IL6R-L (antibody, human IgG1, kappa)
heavy: B1 heavy with E235D, E270D, D274E, R357Q
light: not shown
notes: R355Q introduced into IL6R-BP230; copies: 2 + 2
B11: IL6R-BP543/IL6R-L (antibody, human IgG1, kappa)
heavy: B1 heavy with E235D, E270Q, D274E
light: not shown
notes: H268Q introduced into IL6R-BP230 (takes the place of H268D); copies: 2 + 2
B12: IL6R-BP546/IL6R-L (antibody, human IgG1, kappa)
heavy: B1 heavy with E235D, E270D, D274E, L360M
light: not shown
notes: L358M introduced into IL6R-BP230; copies: 2 + 2
B13: IL6R-BP548/IL6R-L (antibody, human IgG1, kappa)
heavy: B1 heavy with E235D, E270D, D274E, Q421E
light: not shown
notes: Q419E introduced into IL6R-BP230; copies: 2 + 2

What follows are binders tested against T1, human FcγRIIb extracellular domain (assay: ratio of the SPR KD for FcγRIIaR to the KD for FcγRIIb (selectivity)).

Binder | KD(IIaR)/KD(IIb)
B1 | 26.2
B2 | 29
B3 | 22.8

These binders were tested against T2, human FcγRIIa type R extracellular … (assay: SPR (Biacore)).

Binder | Kd
B4 | 920 nM
B5 | 720 nM
B6 | 1600 nM
B7 | 850 nM

The binders below were run against T3, human FcγRIIb extracellular domain with … (assay: SPR (Biacore)).

Binder | Kd
B4 | 24 nM
B5 | 24 nM
B6 | 28 nM
B8 | 21 nM
B7 | 20 nM

The binders below were run against T7, human FcγRIa extracellular domain with C-terminal His tag (human, UniProt P12314 16-292) (assay: SPR (Biacore)).
T7 construct: extracellular domain
T7 sequence (P12314 16-292): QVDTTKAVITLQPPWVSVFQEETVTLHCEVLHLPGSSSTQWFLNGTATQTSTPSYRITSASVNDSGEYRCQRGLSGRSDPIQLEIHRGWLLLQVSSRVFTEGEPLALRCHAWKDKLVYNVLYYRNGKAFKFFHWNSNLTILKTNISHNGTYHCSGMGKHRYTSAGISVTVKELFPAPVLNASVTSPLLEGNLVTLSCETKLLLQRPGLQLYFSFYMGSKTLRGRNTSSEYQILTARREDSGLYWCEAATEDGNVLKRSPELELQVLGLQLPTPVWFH

Binder | Kd
B4 | 0.79 nM
B5 | 2.3 nM
B6 | 1.1 nM
B8 | 0.82 nM

What follows are binders tested against T4, human FcγRIIa type R (R131) … (assay: SPR (Biacore); KD of IL6R-B3/IL6R-L divided by KD of this antibody).

Binder | KD(IIaR) of parent polypeptide/KD(IIaR) of altered polypeptide
B9 | 2.4
B10 | 2.2
B11 | 1.9
B12 | 2.2
B13 | 2.2

What follows are binders tested against T5, human FcγRIIb extracellular domain with … in the same assay as above.

Binder | KD(IIb) of parent polypeptide/KD(IIb) of altered polypeptide
B9 | 190
B10 | 184
B11 | 152
B12 | 205
B13 | 162

The binders below were run against T2, human FcγRIIa type R extracellular … (assay: SPR (Biacore); worded summary of Table 28).

Binder | FcγRIIaR binding as compared to IL6R-B3/IL6R-L
B4 | ≤ 1.5 times
B5 | ≤ 1.5 times
B6 | ≤ 1.5 times
B8 | ≤ 1.5 times
B7 | ≤ 1.5 times

These binders were tested against T3, human FcγRIIb extracellular domain with … (assay: SPR (Biacore); worded summary of Table 28).

Binder | FcγRIIb-binding activity as compared to IL6R-B3/IL6R-L
B4 | ≥ 100 times
B5 | ≥ 100 times
B6 | ≥ 100 times
B8 | ≥ 100 times
B7 | ≥ 100 times

Each binder was assayed against T1, human FcγRIIb extracellular domain (assay: ratio of the SPR KD for FcγRIIaH to the KD for FcγRIIb (selectivity)).

Binder | KD(IIaH)/KD(IIb)
B1 | 454
B2 | 466
B3 | 168

What follows are binders tested against T3, human FcγRIIb extracellular domain with … (assay: SPR (Biacore), ratio of KDs).

Binder | KD(IIaH)/KD(IIb) | KD(IIaR)/KD(IIb)
B4 | 678 | 38.8
B5 | 1030 | 29.9
B6 | 712 | 58.4

Biological target: T6, human FcγRIIa type R extracellular …
Assay: SPR (Biacore), antibody captured on chip, FcγR extracellular domain as analyte, 25 C

Binder | Kd
B1 | 580 nM
B2 | 680 nM
B3 | 4200 nM

These binders were tested against T8, human FcγRIa extracellular domain (human, UniProt P12314 16-292) in the same assay as above.
T8 construct: also called CD64; not shown: His tag at the C terminus
T8 sequence (P12314 16-292): as above

Binder | Kd
B1 | 31 nM
B2 | 25 nM
B3 | 5.6 nM

The binders below were run against T1, human FcγRIIb extracellular domain in the same assay as above.

Binder | Kd
B1 | 22 nM
B2 | 24 nM
B3 | 180 nM

What follows are binders tested against T5, human FcγRIIb extracellular domain with … (assay: SPR (Biacore); KD for FcγRIIaR divided by KD for FcγRIIb).

Binder | KD(IIaR)/KD(IIb)
B9 | 27.8
B10 | 28.8
B11 | 27.3
B12 | 32.8
B13 | 26.2

Biological target: T6, human FcγRIIa type R extracellular …
Assay: fold against IL6R-B3/IL6R-L, from SPR KD values

Binder | KD(IIaR) of the parent polypeptide/KD(IIaR) of the altered polypeptide
B1 | 1.9
B2 | 1.6
B3 | 0.3

The binders below were run against T1, human FcγRIIb extracellular domain (assay: fold against IL6R-B3/IL6R-L, from SPR KD values).

Binder | KD(IIb) of the parent polypeptide/KD(IIb) of the altered polypeptide
B1 | 141
B2 | 131
B3 | 16.8

The binders below were run against T2, human FcγRIIa type R extracellular … (assay: SPR (Biacore), parent IL6R-B3/IL6R-L).

Binder | KD(IIaR) parent/KD(IIaR) altered polypeptide
B4 | 1.2
B5 | 1.5
B6 | 0.7

The binders below were run against T3, human FcγRIIb extracellular domain with … (assay: SPR (Biacore), parent IL6R-B3/IL6R-L).

Binder | KD(IIb) parent/KD(IIb) altered polypeptide
B4 | 131
B5 | 128
B6 | 110

These binders were tested against T4, human FcγRIIa type R (R131) … (assay: SPR (Biacore), antibody captured, FcγR analyte).

Binder | Kd
B9 | 450 nM
B10 | 480 nM
B11 | 560 nM
B12 | 500 nM
B13 | 500 nM

Each binder was assayed against T5, human FcγRIIb extracellular domain with … (assay: SPR (Biacore), antibody captured, FcγR analyte).

Binder | Kd
B9 | 16 nM
B10 | 17 nM
B11 | 20 nM
B12 | 15 nM
B13 | 19 nM

The binders below were run against T9, human FcγRIa extracellular domain with C-terminal His tag (human, UniProt P12314 16-292) (assay: SPR (Biacore), antibody captured, FcγR analyte).
T9 construct: not shown: His tag at the C terminus
T9 sequence (P12314 16-292): as above

Binder | Kd
B9 | 11 nM
B10 | 9.8 nM
B11 | 23 nM
B12 | 9 nM
B13 | 12 nM

— US20220389118A1 (Chugai, published 2022)
